± gives the uncertainty stated by the source.
Assay: amyloid nucleation score (Sup35N fusion, yeast selection) (log enrichment); library NNK1; higher = more nucleation; inactive = no reads after selection
Method in brief: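 DiMSum was used to calculate nucleation scores as log enrichment of output over input reads, centred on the mode score of non-aggregating sequences. Sequences with fewer than 100 input reads were not scored. Input and output came from Illumina sequencing of plasmid inserts in psi-negative yeast expressing peptides of 20 random codons fused to Sup35N, induced 24 hours with 100 μM copper sulfate and then grown 7 days at 30°C on medium lacking adenine and uracil.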

| Substance | amyloid nucleation score |
| --- | --- |
| ENLVFTY | 0.01 ± 0.28 |
| LICSSYTNLALILHLWSKRF | 0.209 ± 0.26 |
| LPWYSSQMRADVSTPERWFL | -0.224 ± 0.7 |
| PINGEGSVSTLNDMVLSRSI | 1.26 ± 0.81 |
| ILITSLWFSGVADVMANRVW | 0.314 ± 0.34 |
| VMHYYTSVYDVNYVRYSPPW | 1.16 ± 0.35 |
| FRMRHQERMAGTPVGMGLYC | -0.327 ± 0.69 |
| RGCPAFDNVTSYDESSEWSY | 0.365 ± 0.62 |
| IWLRS | 0.779 ± 0.62 |
| APSWYRSLMRSSA | 0.159 ± 0.34 |
| FIHSRE | 0.366 ± 0.31 |
| WSLLCDCASGQCVMR | 0.005 ± 0.44 |
| FNIAALSEYCGPLKSNAHW | -0.27 ± 0.64 |
| VELSRASNLCQDNIREHMQV | -0.32 ± 0.31 |
| SMDTLLHP | -0.155 ± 0.23 |
| GDYVRWVRSGYLMQLLNEDS | -0.379 ± 0.75 |
| LNIRVIRGLGRMNAPVVSDL | 1.32 ± 0.57 |
| TSTARISQPDNRVGLNF | -0.032 ± 0.44 |
| NFGVSSNLCGGIWIYW | 4.74 ± 0.074 |
| DTNQGYGVSGQIVKGRICFN | -0.681 ± 0.47 |
| GIFHANLTMVWRHIEVKEGC | 0.696 ± 0.92 |
| LKWSSGHGKIGSNVWRRVYC | 0.42 ± 1.2 |
| GISLSLVVERSGK | 1.49 ± 0.21 |
| MSKINFFVNMAGL | 5.19 ± 0.062 |
| ASSLDLFNWASVWFFNYIGA | -0.887 ± 0.86 |

| Substance | amyloid nucleation score |
| --- | --- |
| LDSGQAPSMLLWGSNYWEKL | 0.808 ± 0.9 |
| WFTAHMCDNHYSTIPNSPRQ | 1 ± 0.81 |
| GMPGHFLLLKLGYFANRTNR | -1.25 ± 1.1 |
| SSFSLGHVDGYKSTSVDAVL | 0.048 ± 1.4 |
| ERRQSEKPGLLPSWS | 0.46 ± 1.2 |
| SMTVNDTLLRLRVGSAILYF | -0.852 ± 0.4 |
| IDTNCRNCGYREFASKCELR | 0.456 ± 0.26 |
| HRVVSVRRCMKHPLSMERVA | 0.447 ± 0.51 |
| GGAHSY | 0.233 ± 0.5 |
| SCACYGWSVYSLGNANRVLS | 0.465 ± 0.69 |
| SNKIGVCSKLMISFPCIEYN | -0.065 ± 1.1 |
| SWCNAYPQWWVRSLSMPS | -0.236 ± 0.55 |
| RFNYVYFINRNMNEPRRGSL | 6.452 ± 0.061 |
| YLQEWRIGRVGCVGFTCRCR | 0.279 ± 0.45 |
| TYRNS | -0.891 ± 1.2 |
| SRYLDIEVLSHGMNWMTFQT | -0.005 ± 0.77 |
| NGLCLDDIVRLFVIITSVGP | 0.821 ± 1.1 |
| SETYVLLKNPSDNIMQKWCV | 0.147 ± 0.79 |
| NNLWCSFS | -0.577 ± 0.43 |
| IKLHSEGRIYHINFACRSVC | 0.199 ± 0.24 |
| LCQVTG | 0.391 ± 0.48 |
| WDSLDIHQFNKDMWQTSG | -0.909 ± 0.9 |
| RFSQWLPFWSVGGELQSCFC | 0.239 ± 0.68 |
| SHGAGYRFTEFIHHSGGLPN | 0.498 ± 0.39 |
| CVTLCSNPWDQKRFICIYRH | -0.021 ± 0.55 |

| Substance | amyloid nucleation score |
| --- | --- |
| HFEQGYAHSSYMWVLGRPMW | 2.86 ± 0.087 |
| RLIENFGPHYRSSPVFDVVV | 1.33 ± 0.79 |
| IGSMRMVSGLRFMRFVDHFS | -0.316 ± 0.42 |
| EFLMIQIVMGAPGCHKGTRR | 0.322 ± 0.47 |
| LKAELSNLKAHVLW | 0.777 ± 0.54 |
| SGQIQFIMIR | 0.727 ± 0.67 |
| IKIRAFDTSSCSQFRVRPRV | 4.63 ± 0.095 |
| YHSWECLHRTANIIWEYFRD | -0.019 ± 0.81 |
| ESCVRYRSACSMFV | 0.902 ± 0.47 |
| VDTLLARIIRLRHQFSNTAV | 0.16 ± 0.29 |
| PRKACTIGWLGSINLERGEE | -0.681 ± 0.74 |
| VGLIDANTSSTSWCEGMRNS | -0.321 ± 0.47 |
| DFLMMSVLHHNNVSYS | 1.52 ± 0.66 |
| PYDYRI | -0.503 ± 0.46 |
| LGMWRCKPRTTLAWSYLDPV | 0.179 ± 0.71 |
| NWVRFIHFYYNGTRLWAEFV | -0.915 ± 0.74 |
| FEFIVMEIAC | -0.189 ± 0.35 |
| DSGLFSKVVMHDNPSSVDKL | -0.123 ± 0.64 |
| TTLVLTADLAVNPRRWWTMI | 0.373 ± 0.43 |
| GFLVSEGFLIVGLLIRVRGL | 0.641 ± 0.37 |
| RTNSSSVCSILKGLSQ | -0.535 ± 1.1 |
| ILMMPLIESCMEVLGHPS | 0.873 ± 0.51 |
| SSVCFVNRGSWPYSKVFNGC | -0.019 ± 0.37 |
| TQLSMWSVRIKISYWVSGGV | 0.804 ± 1.1 |
| YFFFYYYVVTIRKLLHVMGT | -0.854 ± 0.63 |

| Substance | amyloid nucleation score |
| --- | --- |
| EVATGSGERIQLCQVQSVNT | 1.6 ± 0.55 |
| HGLGALYTSVRRARLGFFYC | 4.23 ± 0.15 |
| WSFTK | -0.284 ± 0.68 |
| WAFIHSCRYKLTCGGYFYAR | -0.236 ± 1.2 |
| EILIYNNYETFLVSFFEYGG | 4.21 ± 0.083 |
| SIRFMLYVRVKR | -0.234 ± 0.66 |
| NPSIPCPQAACNMWY | 0.819 ± 0.36 |
| YDTNDGFMTGVQ | -1.56 ± 1.3 |
| NYCGLGSMYL | 1.1 ± 0.8 |
| SNFCDSDLYLFRNWPYYWHS | -0.434 ± 0.26 |
| FKSYPVGIRRHCHGTSMLMG | 0.059 ± 0.31 |
| YQKTNPMELWLPSL | inactive |
| RDNKVPVR | -0.537 ± 1.9 |
| IFVSHYNVR | 0.734 ± 0.25 |
| IYFQVSRLMSVRRAMKSPKP | -0.666 ± 1.4 |
| SFFFSRVGSLFCLRFYDVFG | -0.858 ± 1.3 |
| RMVIMLMGTHDRPFWGITGS | 0.925 ± 0.63 |
| ICHFVLYVQRPNSGWHYKSL | 1.91 ± 0.53 |
| KLVIETSPCVRSHVSLVQKR | -0.277 ± 0.26 |
| QRVIAGPPNRAGKAYQALSR | 0.107 ± 0.53 |
| VWRSFKSMHSHRSNSNALWL | 1.96 ± 0.6 |
| SNPIRTNV | -0.533 ± 0.38 |
| CSFLELLWDVGRCSASQQCM | -0.943 ± 1.7 |
| QGISPLRWAVLYRFMYGCVR | -0.209 ± 0.57 |
| MFDGEIFSYFNCTIV | 5.67 ± 0.051 |

| Substance | amyloid nucleation score |
| --- | --- |
| KSVFIYLGMISLVG | 0.352 ± 0.88 |
| SPFPGKEFNGIVCPLPYSMI | -0.366 ± 0.56 |
| DLSKFGKHFCLLMHYGFPNH | -0.3 ± 0.28 |
| TPCLKQLLLSSLILEGP | -0.6 ± 0.64 |
| FLLLTSMNPLEWTYGRFWGV | -0.597 ± 0.72 |
| RSADTLVEKNLIYGRWVRKS | 0.93 ± 1 |
| REGLTFPRVLPIWHLFVSSD | -0.139 ± 0.32 |
| QGAGAGKITVGTVGVGGTEL | inactive |
| MCDIFAMLLIYQFDGKGTV | 0.151 ± 0.17 |
| QTWLTLDQFVLTFGHKDNLG | 0.853 ± 0.51 |
| KVLGWNMGVHFNHGGRSFVM | 0.461 ± 0.54 |
| RFISVMSLSLLNNNFIEAHV | 0.55 ± 0.6 |
| DSKLLSPDFRGRLIYRIFDD | -0.101 ± 0.46 |
| SLKSSCRKNRLM | 0.048 ± 0.5 |
| VLHCCNAESWLGGWPLGVKN | 0.85 ± 0.6 |
| NVYDMFIKFGVGVASSVSAC | -1.48 ± 1.9 |
| NNIFGLSIYKYCQGRYCNCS | 8.226 ± 0.055 |
| DYFSRKPGNCFWFAIARDNT | -0.398 ± 1.2 |
| ASPMVRISYLNDHKQLKKF | -0.414 ± 0.28 |
| NLIWMVKYCYIIFRIPTTCL | 1.77 ± 0.42 |
| YNEERGCSAC | -0.209 ± 0.33 |
| LVVDRGVNGCAFSWDTNDLS | -0.52 ± 0.71 |
| HVFSLKRPDGCRRR | 0.711 ± 0.38 |
| VFYDNSARSVCNPNYGWTFS | 0.181 ± 0.48 |
| NWEWAFRCPLWCLWDYRSTM | 0.751 ± 0.57 |

| Substance | amyloid nucleation score |
| --- | --- |
| YLCPVRDFNGLYGLVFM | -0.756 ± 1.7 |
| FIHVVAFWRLSRDSY | 0.467 ± 0.55 |
| KVVKCS | -0.97 ± 0.3 |
| ELLQD | 0.038 ± 0.59 |
| AIRSFRARIGN | 0.177 ± 1.2 |
| IYPILVMSASQA | 0.549 ± 0.69 |
| VYATSSIKIAVPVLHQAVLP | 3.14 ± 0.096 |
| FCMVDYWVLVPCDEIGTDVV | 0.116 ± 0.46 |
| IPCDFDRISSSVFAKCNYSI | -0.455 ± 0.24 |
| FTALPSTVVIVQHTLHLDSF | 6.48 ± 0.066 |
| ATSPLCCRH | 0.022 ± 0.28 |
| SSSVCASFAVWSCCASF | 4.52 ± 0.084 |
| CFVHLLGIIYLSLDRNYCRE | 0.272 ± 0.57 |
| MARPLRIHYNYSGSNDLRVR | -0.444 ± 0.4 |
| TFADNF | -1.28 ± 1.1 |
| CYCSEWNWRCNTELDVLFQS | 0.818 ± 0.4 |
| GRIQCHYGLSVYNGFESGTG | 0.279 ± 0.83 |
| FMAGNFSFFLRRNA | inactive |
| SGWSYRRAGRHWMAMMGNKF | -0.04 ± 0.34 |
| LLLIRSYKCNGRRIRICSLL | -0.862 ± 0.76 |
| FQDLSLAVSQCLPCVIIGDC | -0.131 ± 0.44 |
| SRGRSNAALSLRKFVGGFCL | inactive |
| FLSSCDGGLIGMHGTGFTAQ | 0.426 ± 0.45 |
| TEVWCIQLY | 0.787 ± 0.46 |
| YRVYRRLSV | 0.526 ± 0.45 |

| Substance | amyloid nucleation score |
| --- | --- |
| SEYMLRSNIVFPRWIS | 0.35 ± 0.71 |
| GPTYVSSFLELWRNTSHDFC | -0.402 ± 0.88 |
| TLSKYQS | 0.221 ± 0.53 |
| SCNFLYGRRLFL | -0.127 ± 0.55 |
| QVLVYNDFRYFEFHRDVFLR | 8.45 ± 0.073 |
| TSFCIETSGSILIELYGCWA | -0.356 ± 0.5 |
| HWTTHESRKMVGQRFQPVGG | 0.078 ± 0.34 |
| SNSLFNVSQSRSSKSLYQNA | 0.264 ± 0.97 |
| EEQVDLIWLMYGAYHVCVMW | 0.416 ± 0.43 |
| ELTLGLCSYSVRRSCGEGSW | 6.62 ± 0.082 |
| VGRACRPDWFLFLRRRKGSR | -0.344 ± 0.44 |
| IELVNYFHYFRWVGLLDRRC | -0.077 ± 0.38 |
| MSLDGD | 0.868 ± 0.29 |
| PRLMLYCSLYDIESFIIGRC | inactive |
| RLSSRVIRKNFDYQTFCHED | 0.414 ± 0.34 |
| VRLIRGGFDGHADNAVCRWQ | 0.279 ± 0.7 |
| IGCLKFSFFHNLGFGSIDYR | -0.742 ± 0.53 |
| SMLYFRNFRASLLPWAVDFT | -0.496 ± 1.7 |
| NILKNTLAFSVYLISLPLHV | 1.82 ± 0.1 |
| LDRVWMYTIRLLQMKAMVLP | 0.497 ± 0.64 |

From the supplement of paper PMC12042874
